T1: human IL-12 (human, UniProt P29459 23-219; P29460 23-328)
T1 construct: recombinant human IL-12 heterodimer (p35/p40, disulfide-linked); also called hIL-12; rhIL-12
T1 sequence (looked up) 1: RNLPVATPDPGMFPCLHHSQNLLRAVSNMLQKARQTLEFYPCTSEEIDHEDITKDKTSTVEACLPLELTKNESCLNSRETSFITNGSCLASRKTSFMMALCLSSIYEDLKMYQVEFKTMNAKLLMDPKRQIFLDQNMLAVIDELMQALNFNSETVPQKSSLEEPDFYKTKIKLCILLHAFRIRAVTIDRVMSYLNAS
T1 sequence (looked up) 2: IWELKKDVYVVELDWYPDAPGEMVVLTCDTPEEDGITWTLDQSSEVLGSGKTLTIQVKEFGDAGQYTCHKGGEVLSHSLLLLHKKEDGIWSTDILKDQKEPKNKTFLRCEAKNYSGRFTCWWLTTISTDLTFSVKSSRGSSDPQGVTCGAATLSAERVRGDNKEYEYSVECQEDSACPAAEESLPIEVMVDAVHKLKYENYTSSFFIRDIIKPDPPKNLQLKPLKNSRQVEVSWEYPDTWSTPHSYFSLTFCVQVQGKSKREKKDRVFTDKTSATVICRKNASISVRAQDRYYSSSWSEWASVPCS

T2: recombinant human IL-12 (rhIL-12) (human, UniProt P29459 23-219; P29460 23-328)
T2 construct: disulfide-linked p35/p40 heterodimer (p70); also called IL-12 p70; rec. human IL12
T2 sequence (looked up) 1: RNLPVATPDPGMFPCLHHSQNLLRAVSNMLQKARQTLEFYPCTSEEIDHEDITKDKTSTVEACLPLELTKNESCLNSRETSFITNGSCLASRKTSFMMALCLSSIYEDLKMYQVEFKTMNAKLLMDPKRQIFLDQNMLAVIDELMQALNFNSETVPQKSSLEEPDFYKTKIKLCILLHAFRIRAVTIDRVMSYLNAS
T2 sequence (looked up) 2: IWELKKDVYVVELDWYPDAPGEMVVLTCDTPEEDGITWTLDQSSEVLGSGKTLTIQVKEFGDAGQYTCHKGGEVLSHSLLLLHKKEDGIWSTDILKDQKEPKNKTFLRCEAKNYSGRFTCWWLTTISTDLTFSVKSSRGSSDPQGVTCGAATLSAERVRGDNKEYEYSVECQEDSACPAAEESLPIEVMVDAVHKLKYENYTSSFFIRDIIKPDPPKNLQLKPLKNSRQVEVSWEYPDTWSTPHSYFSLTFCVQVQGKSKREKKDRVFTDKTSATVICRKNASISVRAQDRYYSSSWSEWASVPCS


What follows are binders tested against T1, human IL-12 (assay: SPR (BIAcore), IL-12 chip).
Excerpt: The system utilizes the optical properties of SPR to detect alterations in protein concentrations within a dextran biosensor matrix. Proteins are covalently bound to the dextran matrix at known concentrations. […] To determine the off rate (koff), on rate (kₒₙ), association rate (Ka) and dissociation rate (Kd) constants, BIAcore kinetic evaluation software (version 2.1) was used.

Binder	koff
B10 (scFv, V domains shown, scFv) VH: QVQLVQSGGGVVQPGRSLRLSCAASGFTFSSYGMHWVRQAPGKGLEWVAFIRYDGSNKYYADSVKGRFTISRDNSKNTLYLQMKSLRAEDTAVYYCKTHGSHDNWGQGTMVTVSS VL: SYVLTQPPSVSGTPGQRVTISCSGGRSNIGSNTVKWYQQLPGTAPKLLIYGNDQRPSGVPDRFSGSKSGTSASLAITGVQAEDEADYYCQSYDRGLSDSPLFGTGTKVTVL	0.00604 s⁻¹
M2 C3 (scFv, V domains shown, scFv) VH: QVQLVQSGGGVVQPGRSLRLSCAASGFTFSSYGMHWVRQAPGKGLEWVAFIRYDGSNKYYADSVKGRFTISRDNSKNTLYLQMKSLRAEDTAVYYCKTHGSHDNWGQGTMVTVSS VL: SYVLTQPPSVSGTPGQRVTISCSGGRSNIGSNTVKWYQQLPGTAPKLLIYGNDQRPSGVPDRFSGSKSGTSASLAITGVQAEDEADYYCQSYDTGLTGSRVFGTGTKVTVL	0.0462 s⁻¹
M2 B4 (scFv, V domains shown, scFv) VH: QVQLVQSGGGVVQPGRSLRLSCAASGFTFSSYGMHWVRQAPGKGLEWVAFIRYDGSNKYYADSVKGRFTISRDNSKNTLYLQMKSLRAEDTAVYYCKTHGSHDNWGQGTMVTVSS VL: SYVLTQPPSVSGTPGQRVTISCSGGRSNIGSNTVKWYQQLPGTAPKLLIYGNDQRPSGVPDRFSGSKSGTSASLAITGVQAEDEADYYCQSYDIGLTGSRVFGTGTKVTVL	0.0442 s⁻¹
C7 (scFv, V domains shown, scFv) VH: QVQLVQSGGGVVQPGRSLRLSCAASGFTFSSYGMHWVRQAPGKGLEWVAFIRYDGSNKYYADSVKGRFTISRDNSKNTLYLQMKSLRAEDTAVYYCKTHGSHDNWGQGTMVTVSS VL: SYVLTQPPSVSGTPGQRVTISCSGGRSNIGSNTVKWYQQLPGTAPKLLIYGNDQRPSGVPDRFSGSKSGTSASLAITGVQAEDEADYYCQSYDRGIPTSYLFGTGTKVTVL	0.00583 s⁻¹
M2 A4 (scFv, V domains shown, scFv) VH: QVQLVQSGGGVVQPGRSLRLSCAASGFTFSSYGMHWVRQAPGKGLEWVAFIRYDGSNKYYADSVKGRFTISRDNSKNTLYLQMKSLRAEDTAVYYCKTHGSHDNWGQGTMVTVSS VL: SYVLTQPPSVSGTPGQRVTISCSGGRSNIGSNTVKWYQQLPGTAPKLLIYGNDQRPSGVPDRFSGSKSGTSASLAITGVQAEDEADYYCQSYDSGFPGSRVFGTGTKVTVL	0.00849 s⁻¹
C5 (scFv, V domains shown, scFv) VH: QVQLVQSGGGVVQPGRSLRLSCAASGFTFSSYGMHWVRQAPGKGLEWVAFIRYDGSNKYYADSVKGRFTISRDNSKNTLYLQMKSLRAEDTAVYYCKTHGSHDNWGQGTMVTVSS VL: SYVLTQPPSVSGTPGQRVTISCSGGRSNIGSNTVKWYQQLPGTAPKLLIYGNDQRPSGVPDRFSGSKSGTSASLAITGVQAEDEADYYCQSYDRGPHTQPTFGTGTKVTVL	0.00391 s⁻¹
C12 (scFv, V domains shown, scFv) VH: QVQLVQSGGGVVQPGRSLRLSCAASGFTFSSYGMHWVRQAPGKGLEWVAFIRYDGSNKYYADSVKGRFTISRDNSKNTLYLQMKSLRAEDTAVYYCKTHGSHDNWGQGTMVTVSS VL: SYVLTQPPSVSGTPGQRVTISCSGGRSNIGSNTVKWYQQLPGTAPKLLIYGNDQRPSGVPDRFSGSKSGTSASLAITGVQAEDEADYYCQSYDRGLRVQAPFGTGTKVTVL	0.00585 s⁻¹
C3 (scFv, V domains shown, scFv) VH: QVQLVQSGGGVVQPGRSLRLSCAASGFTFSSYGMHWVRQAPGKGLEWVAFIRYDGSNKYYADSVKGRFTISRDNSKNTLYLQMKSLRAEDTAVYYCKTHGSHDNWGQGTMVTVSS VL: SYVLTQPPSVSGTPGQRVTISCSGGRSNIGSNTVKWYQQLPGTAPKLLIYGNDQRPSGVPDRFSGSKSGTSASLAITGVQAEDEADYYCQSYDSGVDPGPYFGTGTKVTVL	0.00334 s⁻¹
C8 (scFv, V domains shown, scFv) VH: QVQLVQSGGGVVQPGRSLRLSCAASGFTFSSYGMHWVRQAPGKGLEWVAFIRYDGSNKYYADSVKGRFTISRDNSKNTLYLQMKSLRAEDTAVYYCKTHGSHDNWGQGTMVTVSS VL: SYVLTQPPSVSGTPGQRVTISCSGGRSNIGSNTVKWYQQLPGTAPKLLIYGNDQRPSGVPDRFSGSKSGTSASLAITGVQAEDEADYYCQSYDSGTSNLLPFGTGTKVTVL	0.00536 s⁻¹
C9 (scFv, V domains shown, scFv) VH: QVQLVQSGGGVVQPGRSLRLSCAASGFTFSSYGMHWVRQAPGKGLEWVAFIRYDGSNKYYADSVKGRFTISRDNSKNTLYLQMKSLRAEDTAVYYCKTHGSHDNWGQGTMVTVSS VL: SYVLTQPPSVSGTPGQRVTISCSGGRSNIGSNTVKWYQQLPGTAPKLLIYGNDQRPSGVPDRFSGSKSGTSASLAITGVQAEDEADYYCQSYDRGPTHLPHFGTGTKVTVL	0.00397 s⁻¹
B11 (scFv, V domains shown, scFv) VH: QVQLVQSGGGVVQPGRSLRLSCAASGFTFSSYGMHWVRQAPGKGLEWVAFIRYDGSNKYYADSVKGRFTISRDNSKNTLYLQMKSLRAEDTAVYYCKTHGSHDNWGQGTMVTVSS VL: SYVLTQPPSVSGTPGQRVTISCSGGRSNIGSNTVKWYQQLPGTAPKLLIYGNDQRPSGVPDRFSGSKSGTSASLAITGVQAEDEADYYCQSYDRGITPGLAFGTGTKVTVL	0.00295 s⁻¹
C6 (scFv, V domains shown, scFv) VH: QVQLVQSGGGVVQPGRSLRLSCAASGFTFSSYGMHWVRQAPGKGLEWVAFIRYDGSNKYYADSVKGRFTISRDNSKNTLYLQMKSLRAEDTAVYYCKTHGSHDNWGQGTMVTVSS VL: SYVLTQPPSVSGTPGQRVTISCSGGRSNIGSNTVKWYQQLPGTAPKLLIYGNDQRPSGVPDRFSGSKSGTSASLAITGVQAEDEADYYCQSYDRGQTPSITFGTGTKVTVL	0.00242 s⁻¹

The binders below were run against T2, recombinant human IL-12 (rhIL-12) (assay: BIAcore SPR, IL-12 on chip).

Binder	koff
99-B11 (scFv, V domains shown, scFv clone) VH: QVQLVQSGGGVVQPGRSLRLSCAASGFTFSSYGMHWVRQAPGKGLEWVAFIRYDGSNKYYADSVKGRFTISRDNSKNTLYLQMKSLRAEDTAVYYCKTHGSHDNWGQGTMVTVSS VL: SYVLTQPPSVSGTPGQRVTISCSGGRSNIGSNTVKWYQQLPGTAPKLLIYGNDQRPSGVPDRFSGSKSGTSASLAITGVQAEDEADYYCQSYDSGYTGSRVFGTGTKVTVL	0.0054 s⁻¹
L3.3R3M-A3 (scFv, V domains shown, scFv clone) VH: QVQLVQSGGGVVQPGRSLRLSCAASGFTFSSYGMHWVRQAPGKGLEWVAFIRYDGSNKYYADSVKGRFTISRDNSKNTLYLQMKSLRAEDTAVYYCKTHGSHDNWGQGTMVTVSS VL: SYVLTQPPSVSGTPGQRVTISCSGGRSNIGSNTVKWYQQLPGTAPKLLIYGNDQRPSGVPDRFSGSKSGTSASLAITGVQAEDEADYYCQSYDRGFTGSMVFGTGTKVTVL	5.37 s⁻¹
99-G7 (scFv, V domains shown, scFv clone) VH: QVQLVQSGGGVVQPGRSLRLSCAASGFTFSSYGMHWVRQAPGKGLEWVAFIRYDGSNKYYADSVKGRFTISRDNSKNTLYLQMKSLRAEDTAVYYCKTHGSHDNWGQGTMVTVSS VL: SYVLTQPPSVSGTPGQRVTISCSGGRSNIGSNTVKWYQQLPGTAPKLLIYGNDQRPSGVPDRFSGSKSGTSASLAITGVQAEDEADYYCQSYLKSRAFSRVFGTGTKVTVL	0.0048 s⁻¹
99-F11 (scFv, V domains shown, scFv clone) VH: QVQLVQSGGGVVQPGRSLRLSCAASGFTFSSYGMHWVRQAPGKGLEWVAFIRYDGSNKYYADSVKGRFTISRDNSKNTLYLQMKSLRAEDTAVYYCKTHGSHDNWGQGTMVTVSS VL: SYVLTQPPSVSGTPGQRVTISCSGGRSNIGSNTVKWYQQLPGTAPKLLIYGNDQRPSGVPDRFSGSKSGTSASLAITGVQAEDEADYYCQSYDSGFTGSRVFGTGTKVTVL	0.0054 s⁻¹
99-C11 (scFv, V domains shown, scFv clone) VH: QVQLVQSGGGVVQPGRSLRLSCAASGFTFSSYGMHWVRQAPGKGLEWVAFIRYDGSNKYYADSVKGRFTISRDNSKNTLYLQMKSLRAEDTAVYYCKTHGSHDNWGQGTMVTVSS VL: SYVLTQPPSVSGTPGQRVTISCSGGRSNIGSNTVKWYQQLPGTAPKLLIYGNDQRPSGVPDRFSGSKSGTSASLAITGVQAEDEADYYCQSYDSGFTGSRVFGTGTKVTVL	0.0057 s⁻¹
99-G11 (scFv, V domains shown, scFv clone) VH: QVQLVQSGGGVVQPGRSLRLSCAASGFTFSSYGMHWVRQAPGKGLEWVAFIRYDGSNKYYADSVKGRFTISRDNSKNTLYLQMKSLRAEDTAVYYCKTHGSHDNWGQGTMVTVSS VL: SYVLTQPPSVSGTPGQRVTISCSGGRSNIGSNTVKWYQQLPGTAPKLLIYGNDQRPSGVPDRFSGSKSGTSASLAITGVQAEDEADYYCQSYDSRFTGSRVFGTGTKVTVL	0.0043 s⁻¹
99-E9 (scFv, V domains shown, scFv clone) VH: QVQLVQSGGGVVQPGRSLRLSCAASGFTFSSYGMHWVRQAPGKGLEWVAFIRYDGSNKYYADSVKGRFTISRDNSKNTLYLQMKSLRAEDTAVYYCKTHGSHDNWGQGTMVTVSS VL: SYVLTQPPSVSGTPGQRVTISCSGGRSNIGSNTVKWYQQLPGTAPKLLIYGNDQRPSGVPDRFSGSKSGTSASLAITGVQAEDEADYYCQSYDSGFTGSRVFGTGTKVTVL	0.0054 s⁻¹

— US20150037348A1 (AbbVie / Abbott, published 2015)
